These are literature values, as cited in paper PMC4321732.

For data set [1], the target named is p53K370me2 (Homo sapiens) (UniProt P04637).
In data set [2] the target is p53K382me2 (Homo sapiens) (UniProt P04637).
Data set [3] concerns the target Histone H4K20me2 (Homo sapiens) (UniProt P62805).

53BP1 TTD tandem Tudor domain, sequence (Q12888 1484-1603): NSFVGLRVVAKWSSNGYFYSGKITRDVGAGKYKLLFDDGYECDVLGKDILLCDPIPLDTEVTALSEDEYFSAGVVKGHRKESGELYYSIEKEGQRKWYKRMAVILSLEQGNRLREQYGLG
p53K370me2 (Homo sapiens), sequence (P04637 whole entry): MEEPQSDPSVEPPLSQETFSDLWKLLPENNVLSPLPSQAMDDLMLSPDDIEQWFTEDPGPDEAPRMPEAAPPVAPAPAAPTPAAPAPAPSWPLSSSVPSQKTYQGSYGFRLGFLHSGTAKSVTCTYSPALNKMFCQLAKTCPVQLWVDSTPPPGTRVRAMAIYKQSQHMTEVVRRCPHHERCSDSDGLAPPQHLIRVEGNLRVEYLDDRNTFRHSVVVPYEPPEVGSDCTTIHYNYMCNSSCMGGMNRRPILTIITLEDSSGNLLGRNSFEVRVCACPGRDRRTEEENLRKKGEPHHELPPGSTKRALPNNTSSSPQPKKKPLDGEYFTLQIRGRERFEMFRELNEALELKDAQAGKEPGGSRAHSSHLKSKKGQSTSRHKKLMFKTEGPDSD
p53K382me2 (Homo sapiens), sequence (P04637 whole entry): as above

Regarding “53BP1 TTD tandem Tudor domain (from UniProt Q12888)”, the figures for the Kd in data set [1], in data set [2] and in data set [3] were 20000 nM, 900 nM and 1300 nM, respectively.

Broadly, the Kd is the free concentration of one partner at which half of the binding sites on the other are occupied at equilibrium, for simple one-to-one binding.
